Earlier results, collected in publication PMC7070747.

What was measured:
[1] = target: Fibronectin extra domain B EDB (Homo sapiens) (UniProt P02751)
[2] = target: integrin αvβ5 (Homo sapiens) (UniProt P06756)
[3] = target: integrin αvβ3 (Homo sapiens) (UniProt P06756)

Sequence of UniProt P02751 (P02751 1266-1356): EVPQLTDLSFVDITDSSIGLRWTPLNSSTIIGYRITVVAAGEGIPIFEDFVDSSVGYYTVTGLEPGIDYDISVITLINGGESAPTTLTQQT

Row | Substance | Kd [1] | Kd [2] | Kd [3]
1 | ZD2 | 11000 nM | – | –
2 | iRGD | – | 62 nM | 18 nM
